{"source": "patent US20240083986A1", "about": "(published 2024)", "binders": {"B1": {"name": "H4H16967P (antibody, human IgG4, V domains shown)", "VH": "QVQLVESGGGVVQPGRSLRLSCAASGFTFSSYGMHWFRQAPGKGLEWVGVIWSDGSDKKYADSVKGRFTISRDNSKNTLYLLMNSLRDDDTAVYHCAREGGFLYSSSSHFDYWGQGTLVTVSS", "VL": "AIQMTQSPSSLSASVGDRVTITCRTSQGIRNDLGWYQQKPGKAPKLLIFAASSLQSGVPSRFSGSGSGTDFTLTISSLQPEDFAIYYCLQDYKYPFTFGGGTKVEIK"}}, "key": {"[1]": {"target": "T1, natural Bet v 1 (Indoor, Cat #NA-BV1-1) (Betula verrucosa (European white birch, …, UniProt P15494 2-160))", "T1 construct": "Bought natural protein purified from birch pollen; also called nBet v 1", "T1 sequence": "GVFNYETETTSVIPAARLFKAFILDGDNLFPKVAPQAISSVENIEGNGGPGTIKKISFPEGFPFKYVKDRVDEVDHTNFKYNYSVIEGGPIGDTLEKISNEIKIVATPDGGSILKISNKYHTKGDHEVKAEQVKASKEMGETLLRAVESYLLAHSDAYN", "assay": "SPR Biacore, mAb captured on anti-hFc, 37C;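 further: purified anti-Bet v 1 monoclonal antibodies, HBS-ET running buffer pH 7.4, rate constants from 1:1 model fit with mass transport limitation, KD and t½ calculated from kinetic constants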"}, "[2]": {"target": "T2, mutant Bet v 1-MMH (Betula verrucosa (European white birch, …))", "T2 construct": "also called CHO produced recombinant Bet v 1 containing a S85A mutation with a C-terminal myc-myc hexahistidine tag", "T2 chain": "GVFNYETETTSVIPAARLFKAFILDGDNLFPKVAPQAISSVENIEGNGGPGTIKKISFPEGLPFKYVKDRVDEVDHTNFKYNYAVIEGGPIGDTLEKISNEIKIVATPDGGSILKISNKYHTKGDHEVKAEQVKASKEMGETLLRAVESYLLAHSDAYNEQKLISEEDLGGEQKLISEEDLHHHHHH", "assay": "SPR Biacore, 25C and 37C"}, "[3]": {"target": "T3, European Hornbeam (Car b 1 isoform 1A & 1B, MyBiosource, Cat #MBS1200018) (European Hornbeam, UniProt P38949 2-160)", "T3 construct": "Bought reagent", "T3 sequence (looked up)": "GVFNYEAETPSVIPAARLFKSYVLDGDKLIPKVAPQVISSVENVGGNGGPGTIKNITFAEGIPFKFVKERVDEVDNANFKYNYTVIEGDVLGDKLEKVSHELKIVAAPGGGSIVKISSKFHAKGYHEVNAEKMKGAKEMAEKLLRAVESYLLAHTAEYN", "assay": "SPR Biacore, 25C;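 further: binding of related allergens to purified monoclonal anti-Bet v 1 antibodies by surface plasmon resonance in HEPES-buffered saline pH 7.4, kinetics fitted to a 1:1 model with mass transport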"}, "[4]": {"target": "T4, Apple (Mal d 1, MyBiosource, Cat #MBS1224919) (Apple, UniProt P43211 2-159, limits assumed)", "T4 construct": "Bought reagent", "T4 sequence (looked up)": "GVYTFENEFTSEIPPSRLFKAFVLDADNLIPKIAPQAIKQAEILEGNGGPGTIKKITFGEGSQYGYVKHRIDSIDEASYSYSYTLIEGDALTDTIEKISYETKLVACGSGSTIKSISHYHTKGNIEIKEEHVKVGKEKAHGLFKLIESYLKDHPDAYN", "assay": "SPR Biacore, 25C"}, "[5]": {"target": "T5, Celery (Api g 1, MyBiosource, Cat #MBS1171376) (Celery, UniProt P49372 1-154, limits assumed)", "T5 construct": "Bought reagent", "T5 sequence (looked up)": "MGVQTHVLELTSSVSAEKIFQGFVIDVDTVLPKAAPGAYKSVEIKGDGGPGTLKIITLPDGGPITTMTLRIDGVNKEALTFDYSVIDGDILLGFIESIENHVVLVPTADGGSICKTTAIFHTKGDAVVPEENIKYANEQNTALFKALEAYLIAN", "assay": "SPR Biacore, 25C"}, "[6]": {"target": "T6, Alder (Aln g 1, MyBiosource, Cat #MBS1041484) (Alder, UniProt P38948 2-160, limits assumed)", "T6 construct": "Bought reagent", "T6 sequence (looked up)": "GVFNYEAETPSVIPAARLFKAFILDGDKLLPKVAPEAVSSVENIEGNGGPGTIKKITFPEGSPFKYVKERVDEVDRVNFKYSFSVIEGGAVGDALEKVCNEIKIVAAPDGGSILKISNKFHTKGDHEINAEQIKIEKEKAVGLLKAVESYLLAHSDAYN", "assay": "SPR Biacore, 25C"}, "[7]": {"target": "T7, European Hornbeam (Car b 1 isoform 2, MyBiosource, Cat #MBS1043940) (European Hornbeam, UniProt P38950 2-160, limits assumed)", "T7 construct": "Bought reagent", "T7 sequence (looked up)": "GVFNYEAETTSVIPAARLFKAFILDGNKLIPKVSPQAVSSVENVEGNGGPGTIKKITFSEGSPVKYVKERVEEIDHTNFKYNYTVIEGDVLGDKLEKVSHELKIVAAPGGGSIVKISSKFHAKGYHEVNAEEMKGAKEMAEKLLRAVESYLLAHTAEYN", "assay": "SPR Biacore, 25C"}, "[8]": {"target": "T1, natural Bet v 1 (Indoor, Cat #NA-BV1-1)", "assay": "SPR Biacore, mAb captured on anti-hFc, 25C;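 further: rate constants from sensorgrams fitted to a 1:1 model with mass transport limitation, KD and t½ derived from kinetic constants, run in HBS-ET buffer at pH 7.4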"}}, "data": [{"binder": "B1", "values": [{"measurement": "100 nM natural Bet v 1 Bound (RU)", "setting": "[1]", "value": 45, "unit": "RU"}, {"measurement": "Kd", "setting": "[1]", "value": 14.3, "unit": "nM"}, {"measurement": "koff", "setting": "[1]", "value": 0.000719, "unit": "s⁻¹"}, {"measurement": "kon", "setting": "[1]", "value": 50400, "unit": "M⁻¹ s⁻¹"}, {"measurement": "t½", "setting": "[1]", "value": 16, "unit": "min"}, {"measurement": "binding result", "setting": "[2]", "value": "no binding (tested: 100 nM)"}, {"measurement": "binding result", "setting": "[3]", "value": "no binding (tested: 100 nM)"}, {"measurement": "binding result", "setting": "[4]", "value": "no binding (tested: 100 nM)"}, {"measurement": "binding result", "setting": "[5]", "value": "no binding (tested: 100 nM)"}, {"measurement": "binding result", "setting": "[6]", "value": "no binding (tested: 100 nM)"}, {"measurement": "binding result", "setting": "[7]", "value": "no binding (tested: 100 nM)"}, {"measurement": "100 nM natural Bet v 1 Bound (RU)", "setting": "[8]", "value": 27, "unit": "RU"}, {"measurement": "Kd", "setting": "[8]", "value": 3.98, "unit": "nM"}, {"measurement": "koff", "setting": "[8]", "value": 0.000149, "unit": "s⁻¹"}, {"measurement": "kon", "setting": "[8]", "value": 37600, "unit": "M⁻¹ s⁻¹"}, {"measurement": "t½", "setting": "[8]", "value": 77, "unit": "min"}]}]}
